# Measured values as given in paper doi:10.1101/2023.06.26.546551, “Unmasking Crucial Residues in Adipose Triglyceride Lipase (ATGL) for Co-Activation with Comparative Gene Identification-58 (CGI-58)” (bioRxiv, 2023).
# Residue numbers refer to the chain shown, from its start.
# T1: smt3-mATGL288-StrepII (mouse adipose triglyceride lipase truncated after D288), wild type (mouse, UniProt Q8BJ56 1-288)
# T1 sequence (looked up): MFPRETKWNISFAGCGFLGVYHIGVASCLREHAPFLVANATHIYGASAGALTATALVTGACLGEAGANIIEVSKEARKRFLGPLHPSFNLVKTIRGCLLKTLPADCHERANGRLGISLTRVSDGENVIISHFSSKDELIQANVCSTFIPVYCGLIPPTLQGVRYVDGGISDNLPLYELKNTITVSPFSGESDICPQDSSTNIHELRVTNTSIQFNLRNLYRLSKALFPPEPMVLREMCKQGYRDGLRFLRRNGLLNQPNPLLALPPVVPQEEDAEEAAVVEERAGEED
# T2: smt3-mATGL288-StrepII N209A (mouse, UniProt Q8BJ56 1-288, N209A)
# T2 sequence (looked up): T1 sequence (looked up) with N209A
# T3: smt3-mATGL288-StrepII I212A (mouse, UniProt Q8BJ56 1-288, I212A)
# T3 sequence (looked up): T1 sequence (looked up) with I212A
# T4: smt3-mATGL288-StrepII I212S (mouse, UniProt Q8BJ56 1-288, I212S)
# T4 sequence (looked up): T1 sequence (looked up) with I212S
# T5: smt3-mATGL288-StrepII N215A (mouse, UniProt Q8BJ56 1-288, N215A)
# T5 sequence (looked up): T1 sequence (looked up) with N215A
# B1: smt3-mCGI-58-His6 (mouse comparative gene identification-58) (natural protein, UniProt Q9DBL9 1-351, looked up)
# chain: MKAMAAEEEVDSADAGGGSGWLTGWLPTWCPTSTSHLKEAEEKMLKCVPCTYKKEPVRISNGNRIWTLMFSHNISSKTPLVLLHGFGGGLGLWALNFEDLSTDRPVYAFDLLGFGRSSRPRFDSDAEEVENQFVESIEEWRCALRLDKMILLGHNLGGFLAAAYSLKYPSRVSHLILVEPWGFPERPDLADQERPIPVWIRALGAALTPFNPLAGLRIAGPFGLSLVQRLRPDFKRKYSSMFEDDTVTEYIYHCNVQTPSGETAFKNMTIPYGWAKRPMLQRIGGLHPDIPVSVIFGARSCIDGNSGTSIQSLRPKSYVKTIAILGAGHYVYADQPEEFNQKVKEICHTVD
# What was measured:
# Assay in all cases: cell-based or functional assay
# [1] = biological target: T1, smt3-mATGL288-StrepII (mouse adipose …)
# [2] = biological target: T2, smt3-mATGL288-StrepII N209A
# [3] = biological target: T3, smt3-mATGL288-StrepII I212A
# [4] = biological target: T4, smt3-mATGL288-StrepII I212S
# [5] = biological target: T5, smt3-mATGL288-StrepII N215A
binder,measurement,setting,value
B1,"EC50 of mCGI-58 for co-activation of the TG hydrolase activity of mATGL288 (25 ug bacterial lysate, purified mCGI-58 up to 2300 nM)",[1],0.178 µM
same,"EC50 of mCGI-58 for co-activation of the TG hydrolase activity of mATGL288 N209A (25 ug bacterial lysate, purified mCGI-58 up to 2300 nM)",[2],~0.5 µM
same,"EC50 of mCGI-58 for co-activation of the TG hydrolase activity of mATGL288 I212A (25 ug bacterial lysate, purified mCGI-58 up to 2300 nM)",[3],~0.5 µM
same,"EC50 of mCGI-58 for co-activation of the TG hydrolase activity of mATGL288 I212S (25 ug bacterial lysate, purified mCGI-58 up to 2300 nM)",[4],~0.2 µM
same,"EC50 of mCGI-58 for co-activation of the TG hydrolase activity of mATGL288 N215A (25 ug bacterial lysate, purified mCGI-58 up to 2300 nM)",[5],~0.2 µM
